Experiments:
[1] = target: Kv1.3 K+ channel, wild-type, expressed in cells (species not stated) (Homo sapiens (Human)) (UniProt P22001); experiment: cell-based or functional assay
[2] = target: KcsA-Kv1.3 (KcsA carrying a segment of the Kv1.3 pore loop)
[3] = target: KcsA-Kv1.3 (KcsA carrying a segment of the Kv1.3 pore loop); remark: listed apart in the source
[4] = target: KcsA-Kv1.3 (KcsA carrying a segment of the Kv1.3 pore loop); remark: listed apart in the source
[5] = target: Homo Kv1.3 (Homo) (UniProt P22001); experiment: two-electrode voltage clamp, block of currents in Xenopus oocytes, dose-response fit
[6] = target: Kv1.1 K+ channel (species not stated); experiment: cell-based or functional assay
[7] = target: BK channel (species not stated); experiment: cell-based or functional assay
[8] = target: Kv1.2 K+ channel (species not stated); experiment: cell-based or functional assay
[9] = target: Homo Kv1.3 (Homo) (UniProt P22001); experiment: cell-based or functional assay
[10] = target: Rattus Kv1.2 (Rattus) (UniProt P63142); experiment: two-electrode voltage clamp, kinetics of block in Xenopus oocytes
[11] = target: Rattus Kv1.2 (Rattus) (UniProt P63142); experiment: two-electrode voltage clamp, block of currents in Xenopus oocytes, dose-response fit
[12] = target: Kv1.3 K+ channel, wild-type, expressed in cells (species not stated) (Homo sapiens (Human)) (UniProt P22001); experiment: panning of a 2:2:96 phage mixture on HEK cells expressing Kv1.3
Target sequence in this assay (P22001 whole entry, form in doubt): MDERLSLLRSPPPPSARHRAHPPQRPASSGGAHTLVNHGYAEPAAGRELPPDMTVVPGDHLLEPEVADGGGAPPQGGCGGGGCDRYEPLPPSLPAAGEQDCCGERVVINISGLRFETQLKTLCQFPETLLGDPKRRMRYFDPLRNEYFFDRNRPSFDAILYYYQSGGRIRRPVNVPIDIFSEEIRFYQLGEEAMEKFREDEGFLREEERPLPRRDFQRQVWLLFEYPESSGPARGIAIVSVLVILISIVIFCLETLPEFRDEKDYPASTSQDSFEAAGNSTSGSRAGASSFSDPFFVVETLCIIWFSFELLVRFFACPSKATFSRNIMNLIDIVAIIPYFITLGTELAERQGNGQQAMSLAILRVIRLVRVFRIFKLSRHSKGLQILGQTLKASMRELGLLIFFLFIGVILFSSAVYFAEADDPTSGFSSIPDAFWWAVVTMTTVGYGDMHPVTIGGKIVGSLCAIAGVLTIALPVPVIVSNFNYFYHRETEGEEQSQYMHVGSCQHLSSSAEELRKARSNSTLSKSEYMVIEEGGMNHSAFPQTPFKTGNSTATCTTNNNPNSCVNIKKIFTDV

[13] = target: KcsA-Kv1.3 (KcsA carrying a segment of the Kv1.3 pore loop); remark: listed apart in the source
[14] = target: KcsA-Kv1.3 (KcsA carrying a segment of the Kv1.3 pore loop); experiment: phage library panning on immobilized KcsA-1.3

Chain of Rattus Kv1.2 (Rattus) (P63142 whole entry): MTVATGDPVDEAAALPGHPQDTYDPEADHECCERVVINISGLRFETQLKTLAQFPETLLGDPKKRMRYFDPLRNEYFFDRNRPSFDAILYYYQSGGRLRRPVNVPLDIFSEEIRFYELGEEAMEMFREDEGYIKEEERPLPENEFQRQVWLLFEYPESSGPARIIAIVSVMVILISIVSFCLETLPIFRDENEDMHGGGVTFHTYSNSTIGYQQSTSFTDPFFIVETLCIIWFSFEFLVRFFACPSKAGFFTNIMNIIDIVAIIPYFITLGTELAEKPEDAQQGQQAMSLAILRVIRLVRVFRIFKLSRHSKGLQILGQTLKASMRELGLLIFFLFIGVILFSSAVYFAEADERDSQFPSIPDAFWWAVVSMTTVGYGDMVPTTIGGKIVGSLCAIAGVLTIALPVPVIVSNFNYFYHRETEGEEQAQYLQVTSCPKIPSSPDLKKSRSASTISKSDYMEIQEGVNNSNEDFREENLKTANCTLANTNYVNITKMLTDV
Chain of Homo Kv1.3 (Homo) (P22001 whole entry): as the sequence (P22001 whole entry, form in doubt) above

## Ce3 (Centruroides elegans toxin Ce3) (peptide)
[1]
  approximate IC50 (nM) of channel block: 366 nM

## Dendroaspis natriuretic peptide (DNP) phage (from UniProt P28374 1-38)
[2]
  Output (% Ligands): 0%

## Kaliotoxin-1 phage (KTX-phage) (peptide)
[3]
  Fold Enrichment: 3.6 fold
[2]
  Output (% Ligands): 100%

## Shk phage (sea anemone K+ channel toxin ShK on phage) (peptide)
[4]
  % phages, OUTPUT: 20%

## fasciculin-2 phage (from UniProt P0C1Z0 1-61) (peptide)
[2]
  Output (% Ligands): 0%

## mokatoxin-1 (MK-1), synthesized peptide
[5]
  Ki: 1 nM
[6]
  approximate IC50 (nM) of channel block: > 1000 nM
[1]
  approximate IC50 (nM) of channel block: 3 nM
[7]
  approximate IC50 (nM) of channel block: > 1000 nM
[8]
  approximate IC50 (nM) of channel block: 680 nM
[9]
  decrease in IL-2 secretion by CD3/CD28-activated human T cells at 10 nM: 50%
  decrease in TNF-α secretion by CD3/CD28-activated human T cells at 10 nM: 50%
  lowest concentration inhibiting cytokine secretion by T cells: 1 nM

## mokatoxin-1 (MK-1), synthesized peptide (peptide; other documents disagree on this pair)
[10]
  koff: 0.16 s⁻¹
  kon: 260000 M⁻¹ s⁻¹
[11]
  Ki: 620 nM

## mokatoxin-1-phage (peptide)
[12]
  % of phages after the 2nd panning: 15%
[13]
  % of the phage isolated after two rounds of selection: 60%
[14]
  % of the eluted phage after two rounds of panning: 16.6%
